Test results as given in patent publication USRE48805E1, “Method for cancer targeting treatment and detection of arginine using albumin-binding arginine deiminase fusion protein” (Vision Global Holdings Ltd., priority 2013, dated 2021).

What was measured:
N=C(N)NCCC[C@H](N)C(=O)O [1] = assay: Enzyme kinetics (Km), citrulline detection by DAM-TSC assay; format: biochemical, Mycoplasma arginini; details: other: substrate arginine (62.5-2000 μM), pH 7.4
Experimental: (§1) To determine the enzyme activity for wild-type ADI and AAD fusion protein in the present invention, the diacetyl monoxime (DAM)-thiosemicarbazide (TSC) assay for citrulline detection is used. The reaction is shown below. L-Arginine argininedeiminase(ADI)orAADfusion>L-Citrulline+Ammonia
(§2) This assay is run by adding sample to a color reagent, which is made by mixing acidic ferric chloride solution with DAM-TSC solution. […] The reaction mixture is heated at 100° C. for […] to develop the color and read at 540 nm (light path=1 cm). A standard curve is constructed using various concentrations of citrulline. One unit of the ADI native enzyme is the amount of enzyme activity that converts 1 μmol of arginine to 1 μmol of citrulline per minute at 37° C. under the assay conditions. The specific activities of wild-type ADI, pegylated ADI (Ensor et al., Cancer Res. 62:5443-5450, 2002) and AAD fusion protein in the present invention are about 20, 15 and 19 U/mg (at pH 7.4, physiological pH), respectively. The specific activities for wild-type ADI and AAD fusion protein at different pH values (in a range from pH 5.5 to 9.5) are also determined, and the optimum pH is at 6.5.
(§3) The Michaelis constant Km is the substrate concentration at which the reaction rate is at half-maximum, and is an inverse measure of the substrate's affinity for the enzyme. […]

N=C(N)NCCC[C@H](N)C(=O)O [2] = assay: as above; format: biochemical, Bacillus cereus; details: other: substrate arginine (62.5-2000 μM), pH 7.4
Experimental: as §1, §2, §3

## AAD fusion protein His-ABD-PolyN-ADI (FIG. 3E), SEQ ID NO: 40, ADI originated from Mycoplasma arginini (Mycoplasmopsis arginini)
N=C(N)NCCC[C@H](N)C(=O)O [1]
  Km: 4.1 µM

## AAD fusion protein His-ABD-PolyN-bcADI (FIG. 3F), SEQ ID NO: 41, ADI originated from Bacillus cereus (Bacillus cereus AH820)
N=C(N)NCCC[C@H](N)C(=O)O [2]
  Km: 132 µM
